Test results reported in patent publication EP0533846B1.
One block for each substance: values may come before it.

Key:
[1] = target: human ciliary neurotrophic factor receptor (CNTFR) (human); experiment: indirect binding: CNTF-myc, 9E10 antibody, FITC-labelled goat anti-mouse antibody, FACS on transfected COS cells
[2] = target: human ciliary neurotrophic factor receptor (CNTFR) (human); experiment: indirect binding assay on COS cells transfected with clone I1: 1 ug/ml CNTF-myc, 9E10, 125I goat anti-mouse antibody; hand-held gamma counter
[3] = target: human ciliary neurotrophic factor receptor (CNTFR) (human); experiment: indirect binding assay on COS cells transfected with clone I2: 1 ug/ml CNTF-myc, 9E10, 125I goat anti-mouse antibody; hand-held gamma counter
[4] = target: human ciliary neurotrophic factor receptor (CNTFR) (human); experiment: indirect binding assay on COS cells transfected with clone I4: 1 ug/ml CNTF-myc, 9E10, 125I goat anti-mouse antibody; hand-held gamma counter
[5] = target: human ciliary neurotrophic factor receptor (CNTFR) (human); experiment: indirect binding assay on COS cells transfected with clone I5: 1 ug/ml CNTF-myc, 9E10, 125I goat anti-mouse antibody; hand-held gamma counter
[6] = target: human ciliary neurotrophic factor receptor (CNTFR) (human); experiment: indirect binding assay on COS cells transfected with clone I6: 1 ug/ml CNTF-myc, 9E10, 125I goat anti-mouse antibody; hand-held gamma counter
[7] = target: human ciliary neurotrophic factor receptor (CNTFR) (human); experiment: indirect binding assay on COS cells transfected with clone I7: 1 ug/ml CNTF-myc, 9E10, 125I goat anti-mouse antibody; hand-held gamma counter
[8] = target: human ciliary neurotrophic factor receptor (CNTFR) (human); experiment: indirect binding assay on COS cells transfected with clone I8: 1 ug/ml CNTF-myc, 9E10, 125I goat anti-mouse antibody; hand-held gamma counter
[9] = target: human ciliary neurotrophic factor receptor (CNTFR) (human); experiment: indirect binding assay on COS cells transfected with clone I9: 1 ug/ml CNTF-myc, 9E10, 125I goat anti-mouse antibody; hand-held gamma counter
[10] = target: human ciliary neurotrophic factor receptor (CNTFR) (human); experiment: indirect binding assay on COS cells transfected with clone I10: 1 ug/ml CNTF-myc, 9E10, 125I goat anti-mouse antibody; hand-held gamma counter
[11] = target: human ciliary neurotrophic factor receptor (CNTFR) (human); experiment: indirect binding assay on COS cells transfected with clone I11: 1 ug/ml CNTF-myc, 9E10, 125I goat anti-mouse antibody; hand-held gamma counter
[12] = target: human ciliary neurotrophic factor receptor (CNTFR) (human); experiment: indirect binding assay on COS cells transfected with clone I12: 1 ug/ml CNTF-myc, 9E10, 125I goat anti-mouse antibody; hand-held gamma counter
[13] = target: human ciliary neurotrophic factor receptor (CNTFR) (human); experiment: indirect binding assay on COS cells transfected with clone I13: 1 ug/ml CNTF-myc, 9E10, 125I goat anti-mouse antibody; hand-held gamma counter
[14] = target: human ciliary neurotrophic factor receptor (CNTFR) (human); experiment: indirect binding assay on COS cells transfected with clone I14: 1 ug/ml CNTF-myc, 9E10, 125I goat anti-mouse antibody; hand-held gamma counter
[15] = target: human ciliary neurotrophic factor receptor (CNTFR) (human); experiment: indirect binding assay on COS cells transfected with clone I15: 1 ug/ml CNTF-myc, 9E10, 125I goat anti-mouse antibody; hand-held gamma counter
[16] = target: human ciliary neurotrophic factor receptor (CNTFR) (human); experiment: iodinated CNTF bound to SH-SY5Y cells first, then incubation without PI-PLC; no cold excess
[17] = target: human ciliary neurotrophic factor receptor (CNTFR) (human); experiment: iodinated CNTF bound to SH-SY5Y cells first, then PI-PLC 500 mU/ml for 45 min; no cold excess
[18] = target: human ciliary neurotrophic factor receptor (CNTFR) (human); experiment: approx. 100 pM iodinated CNTF on SH-SY5Y cells; control pre-treatment without PI-PLC; no cold excess
[19] = target: human ciliary neurotrophic factor receptor (CNTFR) (human); experiment: iodinated CNTF bound to SH-SY5Y cells first, then incubation without PI-PLC; with excess unlabelled CNTF (non-specific)
[20] = target: human ciliary neurotrophic factor receptor (CNTFR) (human); experiment: monolayer binding of 2.16 nM 125I-CNTF to SH-SY5Y cells (3 x 10^5 cells/well, endogenous receptor); specific cpm per cell
[21] = target: human ciliary neurotrophic factor receptor (CNTFR) (human); experiment: iodinated CNTF bound to SH-SY5Y cells first, then PI-PLC 500 mU/ml for 45 min; with excess unlabelled CNTF (non-specific)
[22] = target: human ciliary neurotrophic factor receptor (CNTFR) (human); experiment: monolayer binding of 2.16 nM 125I-CNTF to COS cells transfected with clone I2 (6.5 x 10^4 cells/well); specific cpm per cell
[23] = target: human ciliary neurotrophic factor receptor (CNTFR) (human); experiment: approx. 100 pM iodinated CNTF on SH-SY5Y cells pre-treated with PI-PLC 500 mU/ml (receptor released before binding); no cold excess
[24] = target: human ciliary neurotrophic factor receptor (CNTFR) (human); experiment: approx. 100 pM iodinated CNTF on SH-SY5Y cells pre-treated with PI-PLC 500 mU/ml; with thousand-fold excess unlabelled CNTF (non-specific)
[25] = target: human ciliary neurotrophic factor receptor (CNTFR) (human); experiment: approx. 100 pM iodinated CNTF on SH-SY5Y cells; control pre-treatment without PI-PLC; with thousand-fold excess unlabelled CNTF (non-specific)
[26] = target: human ciliary neurotrophic factor receptor (CNTFR) (human); experiment: monolayer binding of 2.16 nM 125I-CNTF to SH-SY5Y cells (3 x 10^5 cells/well, endogenous receptor); cpm with 1000-fold excess unlabelled CNTF subtracted
[27] = target: human ciliary neurotrophic factor receptor (CNTFR) (human); experiment: monolayer binding of 2.16 nM 125I-CNTF to COS cells transfected with clone I2 (6.5 x 10^4 cells/well); cpm with 1000-fold excess unlabelled CNTF subtracted

- fold increase (FACS fluorescence) against cells transfected with negative clones [1]: 100 fold
- CPM bound (125I-GaM) [2]: 2000 CPM
- CPM bound (125I-GaM) [3]: 8500 CPM
- CPM bound (125I-GaM) [4]: 9000 CPM
- CPM bound (125I-GaM) [5]: 2000 CPM
- CPM bound (125I-GaM) [6]: 1600 CPM
- CPM bound (125I-GaM) [7]: 6000 CPM
- CPM bound (125I-GaM) [8]: 7500 CPM
- CPM bound (125I-GaM) [9]: 7000 CPM
- CPM bound (125I-GaM) [10]: 4500 CPM
- CPM bound (125I-GaM) [11]: 7000 CPM
- CPM bound (125I-GaM) [12]: 5000 CPM
- CPM bound (125I-GaM) [13]: 8000 CPM
- CPM bound (125I-GaM) [14]: 10000 CPM
- CPM bound (125I-GaM) [15]: 8000 CPM
Substance: CNTF/myc (CNTF carrying a C-terminal ten amino acid c-myc epitope tag) (ligand)

- CPM Bound [16]: 1250 CPM
- CPM Bound [17]: 1060 CPM
- CPM Bound [18]: 1440 CPM
- CPM Bound [19]: 310 CPM
- cpm/cell [20]: 0.00428 cpm/cell
- CPM Bound [21]: 300 CPM
- cpm/cell [22]: 0.0217 cpm/cell
- CPM Bound [23]: 420 CPM
- CPM Bound [24]: 310 CPM
- CPM Bound [25]: 370 CPM
- Specific cpm bound [26]: 1280 cpm
- Specific cpm bound [27]: 1410 cpm
Substance: 125I-hCNTF (iodinated human ciliary neurotrophic factor) (from UniProt P26441 1-200) (ligand)
